{"source": "patent EP2123670B1", "about": "(Bioxodes SA, dated 2017)", "binders": {"B1": {"name": "Ir-CPI (other)", "chain": "ANHKGRGRPAKCKLPPDDGPCRARIPSYYFDRKTKTCKEFMYGGCEGNENNFENITTCQEECRAKKV", "notes": "Expressed in E. coli as a GST fusion (pGEX-6P-1), released with PreScission protease and purified by gel filtration; Immobilised on a CM5 chip by amine coupling in the SPR assays; also called recombinant Ir-CPI"}}, "key": {"plasma kallikrein [1]": {"molecular_target": "T1, plasma kallikrein (UniProt P03952 20-638)", "T1 construct": "The active enzyme is the cleaved two-chain form of the precursor", "T1 sequence (P03952 20-638 limits assumed)": "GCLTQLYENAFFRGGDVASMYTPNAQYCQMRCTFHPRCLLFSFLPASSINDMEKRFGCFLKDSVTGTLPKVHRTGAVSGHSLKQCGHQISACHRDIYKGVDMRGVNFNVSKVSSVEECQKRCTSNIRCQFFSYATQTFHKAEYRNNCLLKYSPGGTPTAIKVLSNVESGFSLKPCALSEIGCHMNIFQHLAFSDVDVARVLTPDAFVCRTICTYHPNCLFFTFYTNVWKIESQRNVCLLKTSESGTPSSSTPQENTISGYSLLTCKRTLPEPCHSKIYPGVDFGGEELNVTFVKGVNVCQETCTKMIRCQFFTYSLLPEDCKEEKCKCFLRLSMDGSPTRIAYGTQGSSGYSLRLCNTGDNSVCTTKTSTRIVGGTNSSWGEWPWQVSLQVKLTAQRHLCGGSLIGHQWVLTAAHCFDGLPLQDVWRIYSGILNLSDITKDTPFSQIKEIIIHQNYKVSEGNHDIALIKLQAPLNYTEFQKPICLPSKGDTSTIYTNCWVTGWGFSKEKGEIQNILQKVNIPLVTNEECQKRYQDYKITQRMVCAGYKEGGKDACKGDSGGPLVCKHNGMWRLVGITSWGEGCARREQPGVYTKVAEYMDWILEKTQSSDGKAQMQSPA", "assay": "SPR, Ir-CPI immobilised; two-state model, global equilibrium constant K = ka1ka2/kd1kd2"}, "factor XIa [2]": {"molecular_target": "T2, factor XIa (UniProt P03951 19-625)", "T2 construct": "also called fXIa; FXIa", "assay": "SPR, Ir-CPI immobilised; two-state model, global equilibrium constant K = ka1ka2/kd1kd2"}, "plasmin [3]": {"molecular_target": "T3, plasmin (UniProt P00747 97-810)", "T3 sequence (P00747 97-810 limits assumed)": "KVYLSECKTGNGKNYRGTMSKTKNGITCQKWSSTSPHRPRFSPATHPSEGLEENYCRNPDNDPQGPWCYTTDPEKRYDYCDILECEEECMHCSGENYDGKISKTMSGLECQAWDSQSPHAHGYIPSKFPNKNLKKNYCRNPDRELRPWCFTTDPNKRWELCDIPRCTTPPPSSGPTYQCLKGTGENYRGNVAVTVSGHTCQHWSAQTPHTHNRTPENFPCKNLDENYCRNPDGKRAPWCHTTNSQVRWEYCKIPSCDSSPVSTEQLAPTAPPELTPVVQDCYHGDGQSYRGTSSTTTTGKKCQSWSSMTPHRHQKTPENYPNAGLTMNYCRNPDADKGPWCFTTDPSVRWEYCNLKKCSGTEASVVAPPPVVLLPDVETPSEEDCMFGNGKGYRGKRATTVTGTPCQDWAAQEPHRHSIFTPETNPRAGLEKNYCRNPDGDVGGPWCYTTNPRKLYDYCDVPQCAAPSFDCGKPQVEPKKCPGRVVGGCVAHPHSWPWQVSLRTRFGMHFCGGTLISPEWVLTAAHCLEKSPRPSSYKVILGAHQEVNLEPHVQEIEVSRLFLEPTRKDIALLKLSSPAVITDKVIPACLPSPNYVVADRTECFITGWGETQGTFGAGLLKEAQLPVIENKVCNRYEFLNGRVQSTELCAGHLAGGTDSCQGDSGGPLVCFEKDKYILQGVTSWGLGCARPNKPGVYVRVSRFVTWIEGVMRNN", "assay": "SPR, Ir-CPI immobilised; two-state model, global equilibrium constant K = ka1ka2/kd1kd2"}, "[4]": {"molecular_target": "T4, high molecular weight kininogen (UniProt P01042 19-644)", "T4 construct": "also called HMWK", "T4 sequence (looked up)": "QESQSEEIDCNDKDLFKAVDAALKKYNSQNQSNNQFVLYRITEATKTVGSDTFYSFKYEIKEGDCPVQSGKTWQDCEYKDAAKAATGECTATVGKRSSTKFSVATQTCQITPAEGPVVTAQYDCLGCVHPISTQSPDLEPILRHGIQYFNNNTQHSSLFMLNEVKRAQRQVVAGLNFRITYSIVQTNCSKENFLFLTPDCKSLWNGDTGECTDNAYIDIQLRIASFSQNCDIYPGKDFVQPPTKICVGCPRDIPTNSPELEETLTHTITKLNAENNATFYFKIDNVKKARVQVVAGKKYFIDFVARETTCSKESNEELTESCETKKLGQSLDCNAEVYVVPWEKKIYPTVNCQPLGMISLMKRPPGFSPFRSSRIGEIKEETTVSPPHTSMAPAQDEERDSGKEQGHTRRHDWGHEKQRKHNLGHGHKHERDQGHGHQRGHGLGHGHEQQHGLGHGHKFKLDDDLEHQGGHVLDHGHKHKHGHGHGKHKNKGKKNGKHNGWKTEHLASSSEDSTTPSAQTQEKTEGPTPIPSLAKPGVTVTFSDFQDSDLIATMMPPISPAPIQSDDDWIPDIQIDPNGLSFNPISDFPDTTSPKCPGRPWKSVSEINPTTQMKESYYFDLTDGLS", "assay": "SPR (BIAcore X), Ir-CPI immobilised at 1500 RU on CM5, factor injected"}, "t-PA": {"molecular_target": "t-PA (UniProt P00750 36-562)", "sequence (P00750 36-562 limits assumed)": "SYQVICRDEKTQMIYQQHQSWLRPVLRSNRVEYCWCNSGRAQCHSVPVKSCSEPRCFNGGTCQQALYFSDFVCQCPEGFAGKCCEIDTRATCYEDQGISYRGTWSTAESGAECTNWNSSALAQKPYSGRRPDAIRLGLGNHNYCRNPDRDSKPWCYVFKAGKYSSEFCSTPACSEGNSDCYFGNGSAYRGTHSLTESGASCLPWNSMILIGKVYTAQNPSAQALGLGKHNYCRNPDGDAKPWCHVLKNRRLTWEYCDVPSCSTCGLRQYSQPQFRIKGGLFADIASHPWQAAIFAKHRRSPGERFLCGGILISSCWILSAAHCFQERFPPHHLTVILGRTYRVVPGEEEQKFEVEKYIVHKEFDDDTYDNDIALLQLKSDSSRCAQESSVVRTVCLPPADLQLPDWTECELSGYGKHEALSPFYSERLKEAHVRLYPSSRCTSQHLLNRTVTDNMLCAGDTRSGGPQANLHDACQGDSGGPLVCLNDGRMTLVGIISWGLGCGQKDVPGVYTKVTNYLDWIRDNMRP", "assay": "SPR (BIAcore X), Ir-CPI immobilised at 1500 RU on CM5, factor injected"}, "factor VIIa": {"molecular_target": "T5, factor VIIa (UniProt P08709 61-466)", "T5 construct": "also called fVIIa; FVIIa", "T5 sequence (looked up)": "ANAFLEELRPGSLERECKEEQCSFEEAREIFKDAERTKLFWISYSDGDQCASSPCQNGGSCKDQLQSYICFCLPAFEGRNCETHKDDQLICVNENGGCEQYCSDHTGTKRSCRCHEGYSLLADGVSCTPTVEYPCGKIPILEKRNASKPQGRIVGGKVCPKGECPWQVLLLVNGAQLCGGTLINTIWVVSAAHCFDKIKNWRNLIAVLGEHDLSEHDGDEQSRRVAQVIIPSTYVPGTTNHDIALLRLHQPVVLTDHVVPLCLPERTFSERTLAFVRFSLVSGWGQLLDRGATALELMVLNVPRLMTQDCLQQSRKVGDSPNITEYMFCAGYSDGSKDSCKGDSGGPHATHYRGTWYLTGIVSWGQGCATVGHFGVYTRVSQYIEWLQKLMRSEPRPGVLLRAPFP", "assay": "SPR (BIAcore X), Ir-CPI immobilised at 1500 RU on CM5, factor injected"}, "factor X": {"molecular_target": "T6, factor X (UniProt P00742 41-488)", "T6 construct": "Zymogen; also called fX", "assay": "SPR (BIAcore X), Ir-CPI immobilised at 1500 RU on CM5, factor injected"}, "thrombin": {"molecular_target": "T7, thrombin (UniProt P00734 328-622)", "T7 construct": "also called factor IIa; IIa", "assay": "SPR (BIAcore X), Ir-CPI immobilised at 1500 RU on CM5, factor injected"}, "plasminogen": {"molecular_target": "T8, plasminogen (UniProt P00747 20-810, limits assumed)", "T8 construct": "Zymogen", "T8 sequence (P00747 20-810 limits assumed)": "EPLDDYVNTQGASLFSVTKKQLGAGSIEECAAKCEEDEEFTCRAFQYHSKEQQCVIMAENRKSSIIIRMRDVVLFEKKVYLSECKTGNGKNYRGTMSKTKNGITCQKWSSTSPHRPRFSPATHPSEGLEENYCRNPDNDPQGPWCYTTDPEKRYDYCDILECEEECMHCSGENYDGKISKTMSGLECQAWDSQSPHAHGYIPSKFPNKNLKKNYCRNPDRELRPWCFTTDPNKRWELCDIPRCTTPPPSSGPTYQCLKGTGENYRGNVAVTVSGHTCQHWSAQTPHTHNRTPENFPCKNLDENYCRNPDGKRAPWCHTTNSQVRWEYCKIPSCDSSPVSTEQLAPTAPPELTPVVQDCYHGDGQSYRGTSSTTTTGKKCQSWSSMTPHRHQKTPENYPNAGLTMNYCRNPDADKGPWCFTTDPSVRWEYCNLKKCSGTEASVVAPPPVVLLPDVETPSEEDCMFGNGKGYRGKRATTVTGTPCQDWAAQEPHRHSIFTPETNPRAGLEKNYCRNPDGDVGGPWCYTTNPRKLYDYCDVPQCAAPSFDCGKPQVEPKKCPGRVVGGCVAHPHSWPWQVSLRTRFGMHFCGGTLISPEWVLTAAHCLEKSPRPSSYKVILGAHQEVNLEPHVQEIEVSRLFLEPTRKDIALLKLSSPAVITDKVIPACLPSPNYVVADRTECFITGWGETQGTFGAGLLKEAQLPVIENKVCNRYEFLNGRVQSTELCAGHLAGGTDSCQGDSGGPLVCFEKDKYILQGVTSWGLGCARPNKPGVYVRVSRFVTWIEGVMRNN", "assay": "SPR (BIAcore X), Ir-CPI immobilised at 1500 RU on CM5, factor injected"}, "factor IX": {"molecular_target": "T9, factor IX (UniProt P00740 47-461)", "T9 construct": "Zymogen; also called fIX", "assay": "SPR (BIAcore X), Ir-CPI immobilised at 1500 RU on CM5, factor injected"}, "plasma kallikrein [5]": {"molecular_target": "T1, plasma kallikrein", "assay": "SPR, Ir-CPI immobilised; two-state model, backward rate of the conformation change"}, "factor XIa [6]": {"molecular_target": "T2, factor XIa", "assay": "SPR, Ir-CPI immobilised; two-state model, backward rate of the conformation change"}, "plasmin [7]": {"molecular_target": "T3, plasmin", "assay": "SPR, Ir-CPI immobilised; two-state model, backward rate of the conformation change"}, "plasma kallikrein [8]": {"molecular_target": "T1, plasma kallikrein", "assay": "SPR, Ir-CPI immobilised; two-state model, forward rate of the conformation change"}, "factor XIa [9]": {"molecular_target": "T2, factor XIa", "assay": "SPR, Ir-CPI immobilised; two-state model, forward rate of the conformation change"}, "plasmin [10]": {"molecular_target": "T3, plasmin", "assay": "SPR, Ir-CPI immobilised; two-state model, forward rate of the conformation change"}, "plasma kallikrein [11]": {"molecular_target": "T1, plasma kallikrein", "assay": "SPR (BIAcore X), Ir-CPI immobilised at about 200 RU, factor injected at 5-300 nM; two-state model, ka1 (first step)"}, "factor XIa [12]": {"molecular_target": "T2, factor XIa", "assay": "SPR (BIAcore X), Ir-CPI immobilised at about 200 RU, factor injected at 5-300 nM; two-state model, ka1 (first step)"}, "plasmin [13]": {"molecular_target": "T3, plasmin", "assay": "SPR (BIAcore X), Ir-CPI immobilised at about 200 RU, factor injected at 5-300 nM; two-state model, ka1 (first step)"}, "plasma kallikrein [14]": {"molecular_target": "T1, plasma kallikrein", "assay": "SPR (BIAcore X), Ir-CPI immobilised at about 200 RU, factor injected at 5-300 nM; two-state model, kd1 (first step)"}, "factor XIa [15]": {"molecular_target": "T2, factor XIa", "assay": "SPR (BIAcore X), Ir-CPI immobilised at about 200 RU, factor injected at 5-300 nM; two-state model, kd1 (first step)"}, "plasmin [16]": {"molecular_target": "T3, plasmin", "assay": "SPR (BIAcore X), Ir-CPI immobilised at about 200 RU, factor injected at 5-300 nM; two-state model, kd1 (first step)"}}}
{"binder": "B1", "values": [{"measurement": "Ka", "setting": "plasma kallikrein [1]", "value": "4.51e+06", "unit": "M⁻¹"}, {"measurement": "Ka", "setting": "factor XIa [2]", "value": "3.83e+08", "unit": "M⁻¹"}, {"measurement": "Ka", "setting": "plasmin [3]", "value": "3.3e+08", "unit": "M⁻¹"}, {"measurement": "binding result", "setting": "[4]", "value": "no binding (tested: 100 nM)"}, {"measurement": "binding result", "setting": "t-PA", "value": "no binding (tested: 100 nM)"}, {"measurement": "binding result", "setting": "factor VIIa", "value": "no binding (tested: 100 nM)"}, {"measurement": "binding result", "setting": "factor X", "value": "no binding (tested: 100 nM)"}, {"measurement": "binding result", "setting": "thrombin", "value": "no binding (tested: 100 nM)"}, {"measurement": "binding result", "setting": "plasminogen", "value": "no binding (tested: 100 nM)"}, {"measurement": "binding result", "setting": "factor IX", "value": "no binding (tested: 100 nM)"}, {"measurement": "kd2", "setting": "plasma kallikrein [5]", "value": 0.00142, "unit": "s⁻¹"}, {"measurement": "kd2", "setting": "factor XIa [6]", "value": 0.00232, "unit": "s⁻¹"}, {"measurement": "kd2", "setting": "plasmin [7]", "value": 0.00614, "unit": "s⁻¹"}, {"measurement": "ka2", "setting": "plasma kallikrein [8]", "value": 0.00834, "unit": "s⁻¹"}, {"measurement": "ka2", "setting": "factor XIa [9]", "value": 0.0298, "unit": "s⁻¹"}, {"measurement": "ka2", "setting": "plasmin [10]", "value": 0.00582, "unit": "s⁻¹"}, {"measurement": "kon", "setting": "plasma kallikrein [11]", "value": 34900, "unit": "M⁻¹ s⁻¹"}, {"measurement": "kon", "setting": "factor XIa [12]", "value": "2.31e+06", "unit": "M⁻¹ s⁻¹"}, {"measurement": "kon", "setting": "plasmin [13]", "value": 900000, "unit": "M⁻¹ s⁻¹"}, {"measurement": "koff", "setting": "plasma kallikrein [14]", "value": 0.0532, "unit": "s⁻¹"}, {"measurement": "koff", "setting": "factor XIa [15]", "value": 0.102, "unit": "s⁻¹"}, {"measurement": "koff", "setting": "plasmin [16]", "value": 0.00535, "unit": "s⁻¹"}]}
